In experiment [1] the target is BRCA1 tBRCT L1701K mutant (human) (UniProt P38398). As to the kind of experiment: MST.
For experiment [2], the target named is BRCA1 tBRCT F1662R mutant (human) (UniProt P38398). In words: MST.

With BACH1 phosphopeptide, the values for the Kd in experiment [1] and in experiment [2] were 1.96 µM and 0.86 µM, respectively.

Values taken from doi:10.1101/555623.
